This is an account of results in patent US20240368664A1, “LIVE YEAST BIOSENSORS AND METHODS OF USE THEREOF” (priority 2021, published 2024).

Experiment [1] concerns the target T1, Schizosaccharomyces japonicus pheromone GPCR SjSte2 (Schizosaccharomyces japonicus).
T1 sequence: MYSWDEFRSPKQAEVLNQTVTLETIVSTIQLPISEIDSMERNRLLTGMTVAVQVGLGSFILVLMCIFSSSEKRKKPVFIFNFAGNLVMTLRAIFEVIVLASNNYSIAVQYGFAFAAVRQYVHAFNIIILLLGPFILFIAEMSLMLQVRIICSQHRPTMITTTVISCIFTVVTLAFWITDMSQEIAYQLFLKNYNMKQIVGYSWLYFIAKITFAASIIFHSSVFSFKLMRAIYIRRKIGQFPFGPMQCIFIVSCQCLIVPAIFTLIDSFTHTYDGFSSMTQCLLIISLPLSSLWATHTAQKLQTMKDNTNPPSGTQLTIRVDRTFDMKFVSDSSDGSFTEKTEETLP
Briefly: cell-based or functional assay.

Experiment [2] has as its target T2, Scheffersomyces stipitis pheromone GPCR SsSte2 (Scheffersomyces stipitis).
T2 sequence: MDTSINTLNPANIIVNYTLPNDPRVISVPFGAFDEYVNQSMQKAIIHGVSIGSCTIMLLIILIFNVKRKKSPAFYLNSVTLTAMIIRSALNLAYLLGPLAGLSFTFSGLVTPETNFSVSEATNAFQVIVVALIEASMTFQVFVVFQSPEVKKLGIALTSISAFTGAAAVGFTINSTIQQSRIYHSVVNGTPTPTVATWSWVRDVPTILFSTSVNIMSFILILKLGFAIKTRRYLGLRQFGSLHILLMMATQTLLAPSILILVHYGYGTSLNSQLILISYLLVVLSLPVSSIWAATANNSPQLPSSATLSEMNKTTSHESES
The experiment in a line: cell-based or functional assay.

With S. japonicus pheromone peptide (SjPep), in experiment [1], the apparent EC50, ymTurquoise2, strain co-expressing SjSxa2 came to 100000 nM.

With “Scheffersomyces stipitis cognate peptide (SsPep)”, in experiment [2], the EC50, mCherry, yMJ194 came to 12 nM; the EC50, mCherry, yTC453 was determined as 7 nM; the maximal activation, mCherry, yMJ194 was 320 A.U; the maximal activation, mCherry, yTC453 is 5300 A.U.
